Assay results as given in the supplement of paper PMC9112550, “Optimization of the antimicrobial peptide Bac7 by deep mutational scanning” (BMC Biology, 2022).

The sequences below were run on Escherichia coli TOP10 (assay: shrunken log2 fold change of peptide-encoding DNA abundance (4.5 h post-induction vs induction); higher = less antimicrobial activity (less host growth inhibition)). Details: time post-induction: 4.5 h; library: site-saturation at positions 5, 18, 19, 20.
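Further: peptides expressed intracellularly from a pBAD plasmid library in pooled LB shake-flask culture, induced with 0.3% L-arabinose, DNA abundance read by NGS, three biological replicates, DESeq2 with apeglm shrinkage.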

| Sequence | shrunken log2 fold change |
| --- | --- |
| RRIRERPPRLPRPRPRPRHRPRP | -0.114 |
| RRIRERPPRLPRPRPRPRICPRP | -0.111 |
| RRIRERPPRLPRPRPRPRIDPRP | -0.0634 |
| RRIRERPPRLPRPRPRPRIGPRP | -0.0649 |
| RRIRERPPRLPRPRPRPRKKPRP | -0.111 |
| RRIRERPPRLPRPRPRPRKLPRP | -0.0356 |
| RRIRERPPRLPRPRPRPRMDPRP | -0.495 |
| RRIRERPPRLPRPRPRPRNFPRP | -0.456 |
| RRIRERPPRLPRPRPRPRNRPRP | -0.134 |
| RRIRERPPRLPRPRPRPRPSPRP | -0.093 |
| RRIRERPPRLPRPRPRPRQIPRP | 0.0409 |
| RRIRERPPRLPRPRPRPRQKPRP | 0.0386 |
| RRIRERPPRLPRPRPRPRRMPRP | 0.119 |
| RRIRERPPRLPRPRPRPRTLPRP | -0.17 |
| RRIRERPPRLPRPRPRPRTNPRP | 0.00565 |
| RRIRERPPRLPRPRPRPRVKPRP | -0.207 |
| RRIRERPPRLPRPRPRPRVMPRP | -0.244 |
| RRIRERPPRLPRPRPRPRVYPRP | 0.000497 |
| RRIRERPPRLPRPRPRPRYDPRP | -0.246 |
| RRIRERPPRLPRPRPRPSANPRP | -0.35 |
| RRIRERPPRLPRPRPRPSAYPRP | -0.354 |
| RRIRERPPRLPRPRPRPSCDPRP | -0.281 |
| RRIRERPPRLPRPRPRPSCLPRP | -0.484 |
| RRIRERPPRLPRPRPRPSDNPRP | -1.25 |
| RRIRERPPRLPRPRPRPSGIPRP | -0.272 |

| Sequence | shrunken log2 fold change |
| --- | --- |
| RRIRERPPRLPRPRPRPSHCPRP | 0.0392 |
| RRIRERPPRLPRPRPRPSHGPRP | -0.263 |
| RRIRERPPRLPRPRPRPSKFPRP | -0.199 |
| RRIRERPPRLPRPRPRPSKNPRP | -0.895 |
| RRIRERPPRLPRPRPRPSLFPRP | -0.44 |
| RRIRERPPRLPRPRPRPSLKPRP | -0.217 |
| RRIRERPPRLPRPRPRPSMTPRP | 0.0627 |
| RRIRERPPRLPRPRPRPSNLPRP | -0.302 |
| RRIRERPPRLPRPRPRPSQIPRP | 0.012 |
| RRIRERPPRLPRPRPRPSQQPRP | 0.0678 |
| RRIRERPPRLPRPRPRPSRLPRP | 0.0431 |
| RRIRERPPRLPRPRPRPSRMPRP | -0.0294 |
| RRIRERPPRLPRPRPRPSSGPRP | -0.648 |
| RRIRERPPRLPRPRPRPSSWPRP | -0.0518 |
| RRIRERPPRLPRPRPRPSSYPRP | -1.12 |
| RRIRERPPRLPRPRPRPSYHPRP | -0.66 |
| RRIRERPPRLPRPRPRPSYMPRP | -0.0864 |
| RRIRERPPRLPRPRPRPSYTPRP | -0.181 |
| RRIRERPPRLPRPRPRPTCSPRP | -0.397 |
| RRIRERPPRLPRPRPRPTDMPRP | -0.375 |
| RRIRERPPRLPRPRPRPTDQPRP | -0.127 |
| RRIRERPPRLPRPRPRPTEAPRP | 0.0834 |
| RRIRERPPRLPRPRPRPTFLPRP | -0.724 |
| RRIRERPPRLPRPRPRPTFMPRP | -0.157 |
| RRIRERPPRLPRPRPRPTGVPRP | -0.129 |

| Sequence | shrunken log2 fold change |
| --- | --- |
| RRIRERPPRLPRPRPRPTHKPRP | 0.0682 |
| RRIRERPPRLPRPRPRPTHMPRP | -0.182 |
| RRIRERPPRLPRPRPRPTHNPRP | -0.206 |
| RRIRERPPRLPRPRPRPTKTPRP | -0.0835 |
| RRIRERPPRLPRPRPRPTLIPRP | 0.0112 |
| RRIRERPPRLPRPRPRPTLMPRP | 0.0249 |
| RRIRERPPRLPRPRPRPTMGPRP | -0.253 |
| RRIRERPPRLPRPRPRPTMQPRP | 0.0612 |
| RRIRERPPRLPRPRPRPTNFPRP | -0.00437 |
| RRIRERPPRLPRPRPRPTNMPRP | -0.568 |
| RRIRERPPRLPRPRPRPTNNPRP | -0.591 |
| RRIRERPPRLPRPRPRPTPAPRP | 0.239 |
| RRIRERPPRLPRPRPRPTREPRP | 0.329 |
| RRIRERPPRLPRPRPRPTRQPRP | 0.588 |
| RRIRERPPRLPRPRPRPTTPPRP | -0.0926 |
| RRIRERPPRLPRPRPRPTVEPRP | -0.0686 |
| RRIRERPPRLPRPRPRPTVIPRP | -0.0209 |
| RRIRERPPRLPRPRPRPTWDPRP | -0.327 |
| RRIRERPPRLPRPRPRPTYGPRP | 0.158 |
| RRIRERPPRLPRPRPRPTYNPRP | -0.908 |
| RRIRERPPRLPRPRPRPVCKPRP | 0.0272 |
| RRIRERPPRLPRPRPRPVDKPRP | -0.0448 |
| RRIRERPPRLPRPRPRPVDLPRP | -0.103 |
| RRIRERPPRLPRPRPRPVEWPRP | -0.00804 |
| RRIRERPPRLPRPRPRPVFDPRP | -0.461 |

| Sequence | shrunken log2 fold change |
| --- | --- |
| RRIRERPPRLPRPRPRPVFFPRP | 0.0585 |
| RRIRERPPRLPRPRPRPVFHPRP | -0.238 |
| RRIRERPPRLPRPRPRPVFIPRP | -0.281 |
| RRIRERPPRLPRPRPRPVHCPRP | -0.293 |
| RRIRERPPRLPRPRPRPVILPRP | -0.388 |
| RRIRERPPRLPRPRPRPVMHPRP | -0.0979 |
| RRIRERPPRLPRPRPRPVMPPRP | -0.259 |
| RRIRERPPRLPRPRPRPVNGPRP | -0.323 |
| RRIRERPPRLPRPRPRPVNNPRP | -0.871 |
| RRIRERPPRLPRPRPRPVNYPRP | -0.0115 |
| RRIRERPPRLPRPRPRPVPDPRP | 0.268 |
| RRIRERPPRLPRPRPRPVPIPRP | 0.343 |
| RRIRERPPRLPRPRPRPVPQPRP | -0.195 |
| RRIRERPPRLPRPRPRPVQDPRP | -0.0228 |
| RRIRERPPRLPRPRPRPVQRPRP | 0.0476 |
| RRIRERPPRLPRPRPRPVSEPRP | 0.164 |
| RRIRERPPRLPRPRPRPVVNPRP | -0.257 |
| RRIRERPPRLPRPRPRPVWPPRP | 0.0958 |
| RRIRERPPRLPRPRPRPVYCPRP | -0.477 |
| RRIRERPPRLPRPRPRPVYGPRP | -0.375 |
| RRIRERPPRLPRPRPRPVYPPRP | -0.335 |
| RRIRERPPRLPRPRPRPVYWPRP | 0.0789 |
| RRIRERPPRLPRPRPRPWCKPRP | 0.00398 |
| RRIRERPPRLPRPRPRPWCVPRP | -0.94 |
| RRIRERPPRLPRPRPRPWDNPRP | -0.021 |

| Sequence | shrunken log2 fold change |
| --- | --- |
| RRIRERPPRLPRPRPRPWEQPRP | -0.131 |
| RRIRERPPRLPRPRPRPWFAPRP | -0.276 |
| RRIRERPPRLPRPRPRPWFWPRP | 0.061 |
| RRIRERPPRLPRPRPRPWGEPRP | -0.279 |
| RRIRERPPRLPRPRPRPWHYPRP | -0.067 |
| RRIRERPPRLPRPRPRPWLFPRP | -0.0723 |
| RRIRERPPRLPRPRPRPWLVPRP | -0.436 |
| RRIRERPPRLPRPRPRPWPHPRP | -0.0947 |
| RRIRERPPRLPRPRPRPWPWPRP | -0.233 |
| RRIRERPPRLPRPRPRPWRSPRP | 0.196 |
| RRIRERPPRLPRPRPRPWSCPRP | -0.11 |
| RRIRERPPRLPRPRPRPWTFPRP | -0.292 |
| RRIRERPPRLPRPRPRPWVNPRP | -0.00303 |
| RRIRERPPRLPRPRPRPYACPRP | -0.0634 |
| RRIRERPPRLPRPRPRPYCCPRP | -0.899 |
| RRIRERPPRLPRPRPRPYCWPRP | -0.509 |
| RRIRERPPRLPRPRPRPYCYPRP | -0.979 |
| RRIRERPPRLPRPRPRPYDQPRP | -0.518 |
| RRIRERPPRLPRPRPRPYEIPRP | 0.0169 |
| RRIRERPPRLPRPRPRPYGKPRP | -0.00133 |
| RRIRERPPRLPRPRPRPYHVPRP | 0.0464 |
| RRIRERPPRLPRPRPRPYHYPRP | -0.102 |
| RRIRERPPRLPRPRPRPYIKPRP | -0.573 |
| RRIRERPPRLPRPRPRPYIMPRP | -0.542 |
| RRIRERPPRLPRPRPRPYIVPRP | 0.00789 |

| Sequence | shrunken log2 fold change |
| --- | --- |
| RRIRERPPRLPRPRPRPYKMPRP | -0.0803 |
| RRIRERPPRLPRPRPRPYKSPRP | -0.0824 |
| RRIRERPPRLPRPRPRPYMFPRP | -0.736 |
| RRIRERPPRLPRPRPRPYNAPRP | -1.26 |
| RRIRERPPRLPRPRPRPYNYPRP | -0.519 |
| RRIRERPPRLPRPRPRPYPEPRP | -0.918 |
| RRIRERPPRLPRPRPRPYPHPRP | -0.0727 |
| RRIRERPPRLPRPRPRPYPTPRP | -0.397 |
| RRIRERPPRLPRPRPRPYQIPRP | -0.388 |
| RRIRERPPRLPRPRPRPYRWPRP | -0.0887 |
| RRIRERPPRLPRPRPRPYRYPRP | -0.107 |
| RRIRERPPRLPRPRPRPYSAPRP | -0.269 |
| RRIRERPPRLPRPRPRPYSHPRP | 0.0583 |
| RRIRERPPRLPRPRPRPYSIPRP | -0.0605 |
| RRIRERPPRLPRPRPRPYSQPRP | -0.443 |
| RRIRERPPRLPRPRPRPYTQPRP | -0.0502 |
| RRIRERPPRLPRPRPRPYTTPRP | -0.49 |
| RRIRERPPRLPRPRPRPYVEPRP | -0.534 |
| RRIRERPPRLPRPRPRPYYGPRP | -0.127 |
| RRIRERPPRLPRPRPRPYYLPRP | -0.827 |
| RRIRFRPPRLPRPRPRPAAQPRP | 0.122 |
| RRIRFRPPRLPRPRPRPACSPRP | 0.0139 |
| RRIRFRPPRLPRPRPRPADPPRP | 0.109 |
| RRIRFRPPRLPRPRPRPAESPRP | -0.117 |
| RRIRFRPPRLPRPRPRPAEWPRP | 0.512 |
